Values of other authors as cited in publication PMC9805914.

Target: SARS-CoV-2 spike RGD motif RGD motif (Severe acute respiratory syndrome coronavirus 2) (UniProt P0DTC2)

integrin αvβ8 (from UniProt P06756)
Kd: 4 nM
